According to article PMC7840889, “Architecture of the Tuberous Sclerosis Protein Complex” (Journal of Molecular Biology, 2021):

B1: FLAG-tagged full-length human TSC2 (natural protein)
chain: not shown
notes: human TSC2, full length, 1807 amino acids, UniProtKB/Swiss-Prot P49815-1; Could not be purified in the absence of TSC1; two copies stand in the TSCC; also called tuberin
B2: FLAG-tagged human TBC1D7 (natural protein, UniProt Q9P0N9 1-293, looked up)
chain: MTEDSQRNFRSVYYEKVGFRGVEEKKSLEILLKDDRLDTEKLCTFSQRFPLPSMYRALVWKVLLGILPPHHESHAKVMMYRKEQYLDVLHALKVVRFVSDATPQAEVYLRMYQLESGKLPRSPSFPLEPDDEVFLAIAKAMEEMVEDSVDCYWITRRFVNQLNTKYRDSLPQLPKAFEQYLNLEDGRLLTHLRMCSAAPKLPYDLWFKRCFAGCLPESSLQRVWDKVVSGSCKILVFVAVEILLTFKIKVMALNSAEKITKFLENIPQDSSDAIVSKAIDLWHKHCGTPVHSS
notes: human TBC1D7, 293 amino acids, GenBank AAH07054; part of the FL TSC1-TSC2-TBC1D7 (TSCCFL) plasmids; One copy stands in the TSCC
B3: FLAG-tagged full-length human TSC1 (natural protein, UniProt Q92574-1 1-1164, looked up)
chain: MAQQANVGELLAMLDSPMLGVRDDVTAVFKENLNSDRGPMLVNTLVDYYLETSSQPALHILTTLQEPHDKHLLDRINEYVGKAATRLSILSLLGHVIRLQPSWKHKLSQAPLLPSLLKCLKMDTDVVVLTTGVLVLITMLPMIPQSGKQHLLDFFDIFGRLSSWCLKKPGHVAEVYLVHLHASVYALFHRLYGMYPCNFVSFLRSHYSMKENLETFEEVVKPMMEHVRIHPELVTGSKDHELDPRRWKRLETHDVVIECAKISLDPTEASYEDGYSVSHQISARFPHRSADVTTSPYADTQNSYGCATSTPYSTSRLMLLNMPGQLPQTLSSPSTRLITEPPQATLWSPSMVCGMTTPPTSPGNVPPDLSHPYSKVFGTTAGGKGTPLGTPATSPPPAPLCHSDDYVHISLPQATVTPPRKEERMDSARPCLHRQHHLLNDRGSEEPPGSKGSVTLSDLPGFLGDLASEEDSIEKDKEEAAISRELSEITTAEAEPVVPRGGFDSPFYRDSLPGSQRKTHSAASSSQGASVNPEPLHSSLDKLGPDTPKQAFTPIDLPCGSADESPAGDRECQTSLETSIFTPSPCKIPPPTRVGFGSGQPPPYDHLFEVALPKTAHHFVIRKTEELLKKAKGNTEEDGVPSTSPMEVLDRLIQQGADAHSKELNKLPLPSKSVDWTHFGGSPPSDEIRTLRDQLLLLHNQLLYERFKRQQHALRNRRLLRKVIKAAALEEHNAAMKDQLKLQEKDIQMWKVSLQKEQARYNQLQEQRDTMVTKLHSQIRQLQHDREEFYNQSQELQTKLEDCRNMIAELRIELKKANNKVCHTELLLSQVSQKLSNSESVQQQMEFLNRQLLVLGEVNELYLEQLQNKHSDTTKEVEMMKAAYRKELEKNRSHVLQQTQRLDTSQKRILELESHLAKKDHLLLEQKKYLEDVKLQARGQLQAAESRYEAQKRITQVFELEILDLYGRLEKDGLLKKLEEEKAEAAEAAEERLDCCNDGCSDSMVGHNEEASGHNGETKTPRPSSARGSSGSRGGGGSSSSSSELSTPEKPPHQRAGPFSSRWETTMGEASASIPTTVGSLPSSKSFLGMKARELFRNKSESQCDEDGMTSSLSESLKTELGKDLGVEAKIPLNLDGPHPSPPTPDSVGQLHIMDYNETHHEHS
notes: human TSC1, full length, 1164 amino acids, UniProtKB/Swiss-Prot Q92574-1; Two copies stand in the TSCC; also called hamartin
B4: TSC1(Δ400-600) (natural protein, human, UniProt Q92574-1 1-1164, looked up)
chain: MAQQANVGELLAMLDSPMLGVRDDVTAVFKENLNSDRGPMLVNTLVDYYLETSSQPALHILTTLQEPHDKHLLDRINEYVGKAATRLSILSLLGHVIRLQPSWKHKLSQAPLLPSLLKCLKMDTDVVVLTTGVLVLITMLPMIPQSGKQHLLDFFDIFGRLSSWCLKKPGHVAEVYLVHLHASVYALFHRLYGMYPCNFVSFLRSHYSMKENLETFEEVVKPMMEHVRIHPELVTGSKDHELDPRRWKRLETHDVVIECAKISLDPTEASYEDGYSVSHQISARFPHRSADVTTSPYADTQNSYGCATSTPYSTSRLMLLNMPGQLPQTLSSPSTRLITEPPQATLWSPSMVCGMTTPPTSPGNVPPDLSHPYSKVFGTTAGGKGTPLGTPATSPPPAPPPPYDHLFEVALPKTAHHFVIRKTEELLKKAKGNTEEDGVPSTSPMEVLDRLIQQGADAHSKELNKLPLPSKSVDWTHFGGSPPSDEIRTLRDQLLLLHNQLLYERFKRQQHALRNRRLLRKVIKAAALEEHNAAMKDQLKLQEKDIQMWKVSLQKEQARYNQLQEQRDTMVTKLHSQIRQLQHDREEFYNQSQELQTKLEDCRNMIAELRIELKKANNKVCHTELLLSQVSQKLSNSESVQQQMEFLNRQLLVLGEVNELYLEQLQNKHSDTTKEVEMMKAAYRKELEKNRSHVLQQTQRLDTSQKRILELESHLAKKDHLLLEQKKYLEDVKLQARGQLQAAESRYEAQKRITQVFELEILDLYGRLEKDGLLKKLEEEKAEAAEAAEERLDCCNDGCSDSMVGHNEEASGHNGETKTPRPSSARGSSGSRGGGGSSSSSSELSTPEKPPHQRAGPFSSRWETTMGEASASIPTTVGSLPSSKSFLGMKARELFRNKSESQCDEDGMTSSLSESLKTELGKDLGVEAKIPLNLDGPHPSPPTPDSVGQLHIMDYNETHHEHS
notes: human TSC1 (1164 amino acids, Q92574-1) with an internal deletion of residues 400-600; also called TSC1 internal deletion construct; TSC1 of TSCC1Δ

What was measured:
[1] = biological target: the molecule itself; assay: SEC-MALS; TSCC1Δ (TSC1(Δ400-600)-TSC2-TBC1D7) on Superose 6 10/300; 25 mM K-HEPES pH 7.6, 250 mM KCl, 0.5 mM EDTA, 1 mM TCEP; room temperature
TSC1(Δ400-600) = biological target: B4; assay: as above; conditions: both partners purified
[2] = biological target: B3; assay: cryo-EM structure; single-particle cryo-EM of purified TSCCFL at 0.1-0.2 mg/mL on graphene oxide; 25 mM K-HEPES pH 7.6, 175 mM KCl or 150 mM LiCl, 1 mM TCEP; body 4.6 Å, pincer 8.1 Å, tail 8.2 Å; conditions: both partners purified
[3] = biological target: B1; assay: as above; conditions: both partners purified
[4] = biological target: B1; assay: SEC-MALS; TSCC1Δ (TSC1(Δ400-600)-TSC2-TBC1D7) on Superose 6 10/300; 25 mM K-HEPES pH 7.6, 250 mM KCl, 0.5 mM EDTA, 1 mM TCEP; room temperature; conditions: both partners purified

Binder: B1
stoichiometry N [1]: ~2

Binder: B2
binding result (TSC1(Δ400-600)): binds
binding result [2]: binds

Binder: B3
binding result [3]: binds

Binder: B4
binding result [4]: binds
stoichiometry N [1]: ~2
